In the Immune Epitope Database (IEDB) one finds IC50 data, which are given here for 23 sequences.

The target of experiment [1] is HLA-A*02:06. Briefly: IEDB peptide-MHC binding, purified MHC/competitive/radioactivity; ≥ and ≤ were set here for values at or beyond the usual limits of such assays.
In experiment [2] the target is HLA-A*02:02. The description is as above.
Experiment [3] deals with HLA-A*02:03. The description is as above.
The target in experiment [4] is HLA-A*02:01. The experiment is described as above.
The target in experiment [5] is HLA-A*68:02. Briefly: IEDB peptide-MHC binding, cellular MHC/competitive/fluorescence; ≥ and ≤ were set here for values at or beyond the usual limits of such assays.
The mark [6] stands for this setting: source organism: Vaccinia virus WR.
Setting [7] is: source organism: Influenza A virus.
Setting [8] is: source organism: Hepacivirus hominis.

One may read the IC50 as the point on the concentration scale where inhibition reaches its midpoint. As to AAVTLNRIKI, the IC50 in experiment [1] (setting [6]) amounted to 1920 nM; in experiment [2] (setting [6]), 830 nM; in experiment [3] (setting [6]), 3490 nM; in experiment [4] (setting [6]), 2320 nM; in experiment [5] (setting [6]) it was 5980 nM.

With AIMDKNIML, the IC50 in experiment [1] (setting [7]) was determined as 304 nM; in experiment [2] (setting [7]), 153 nM; in experiment [3] (setting [7]), 802 nM; in experiment [4] (setting [7]), 75 nM; in experiment [5] (setting [7]), 13000 nM.

For the sequence AIYVFCISL, the IC50 in experiment [1] (source organism: SARS-CoV1) was found to be 48 nM; in experiment [2] (source organism: SARS-CoV1), 143 nM; in experiment [3] (source organism: SARS-CoV1), 201 nM; in experiment [4] (source organism: SARS-CoV1) it was 119 nM; in experiment [5] (source organism: SARS-CoV1), 5470 nM.

Regarding ALALEQYGI, the IC50 in experiment [1] (setting [6]) came out at 548 nM; in experiment [2] (setting [6]), 0.69 nM; in experiment [3] (setting [6]), 40 nM; in experiment [4] (setting [6]) it was 30 nM; in experiment [5] (setting [6]), 40400 nM.

On to ALDCQIYGA, for which the half-inhibitory concentration (IC50) was 1200 nM in experiment [1] (setting [8]); 1590 nM in experiment [2] (setting [8]); 1800 nM in experiment [3] (setting [8]); 143 nM in experiment [4] (setting [8]); at least 70000 nM in experiment [5] (setting [8]).

For the sequence ALDGVLSTFV, the IC50 in experiment [1] (source organism: SARS-CoV1) worked out at 140 nM; in experiment [2] (source organism: SARS-CoV1), 3.3 nM; in experiment [3] (source organism: SARS-CoV1), 28 nM; in experiment [4] (source organism: SARS-CoV1) it was 28 nM; in experiment [5] (source organism: SARS-CoV1) it was 5200 nM.

As to ALEQYGIENT, the IC50 in experiment [1] (setting [6]) was 1270 nM; in experiment [2] (setting [6]), 3150 nM; in experiment [3] (setting [6]), 2160 nM; in experiment [4] (setting [6]) it was 1450 nM; in experiment [5] (setting [6]) it was 21800 nM.

For the sequence ALLADKFPV, the IC50 in experiment [1] (source organism: SARS-CoV1) came out at 23 nM; in experiment [2] (source organism: SARS-CoV1) it was 29 nM; in experiment [3] (source organism: SARS-CoV1), 604 nM; in experiment [4] (source organism: SARS-CoV1), 1.7 nM; in experiment [5] (source organism: SARS-CoV1), 12900 nM.

Regarding ALLFLMSFT, the IC50 in experiment [1] (source organism: SARS-CoV1) worked out at 128 nM; in experiment [2] (source organism: SARS-CoV1), 2830 nM; in experiment [3] (source organism: SARS-CoV1), 1990 nM; in experiment [4] (source organism: SARS-CoV1), 406 nM; in experiment [5] (source organism: SARS-CoV1), 16000 nM.

On to ALLRMCALV, for which the IC50 in experiment [1] (setting [8]) is 417 nM; in experiment [2] (setting [8]), 83 nM; in experiment [3] (setting [8]), 65 nM; in experiment [4] (setting [8]), 34 nM; in experiment [5] (setting [8]), 6490 nM.

Take ALLSCIRNA: the IC50 in experiment [1] (setting [6]) is 77 nM; in experiment [2] (setting [6]), 120 nM; in experiment [3] (setting [6]) it was 6.2 nM; in experiment [4] (setting [6]), 23 nM; in experiment [5] (setting [6]), at least 70000 nM.

On to ALLSCLTTPA, for which the half-maximal inhibitory concentration (IC50) is 231 nM in experiment [1] (setting [8]); 439 nM in experiment [2] (setting [8]); 211 nM in experiment [3] (setting [8]); 161 nM in experiment [4] (setting [8]); at least 70000 nM in experiment [5] (setting [8]).

As for ALMTLDDLAI, the IC50 in experiment [1] (setting [6]) stood at 24 nM; in experiment [2] (setting [6]), 14 nM; in experiment [3] (setting [6]), 29 nM; in experiment [4] (setting [6]) it was 0.74 nM; in experiment [5] (setting [6]), 7700 nM.

As for ALSGVFCGV, the IC50 in experiment [1] (source organism: SARS-CoV1) is 50 nM; in experiment [2] (source organism: SARS-CoV1) it was 1.2 nM; in experiment [3] (source organism: SARS-CoV1), 12 nM; in experiment [4] (source organism: SARS-CoV1), 13 nM; in experiment [5] (source organism: SARS-CoV1), 22500 nM.

For ALTDVEKRIL, the IC50 was 934 nM in experiment [1] (setting [6]); 97 nM in experiment [2] (setting [6]); 127 nM in experiment [3] (setting [6]); 429 nM in experiment [4] (setting [6]); 13800 nM in experiment [5] (setting [6]).

With ALVFLILCFT, the IC50 in experiment [1] (source organism: SARS-CoV1) is 229 nM; in experiment [2] (source organism: SARS-CoV1), 209 nM; in experiment [3] (source organism: SARS-CoV1) it was 1120 nM; in experiment [4] (source organism: SARS-CoV1) it was 161 nM; in experiment [5] (source organism: SARS-CoV1) it was 10500 nM.

In the case of ALVLLILMTA, the IC50 in experiment [1] (source organism: SARS-CoV1) is 61 nM; in experiment [2] (source organism: SARS-CoV1), 67 nM; in experiment [3] (source organism: SARS-CoV1), 51 nM; in experiment [4] (source organism: SARS-CoV1), 325 nM; in experiment [5] (source organism: SARS-CoV1) it was 12500 nM.

For ALVSGTATA, the IC50 in experiment [1] (source organism: SARS-CoV1) amounted to 269 nM; in experiment [2] (source organism: SARS-CoV1), 4.6 nM; in experiment [3] (source organism: SARS-CoV1), 8.1 nM; in experiment [4] (source organism: SARS-CoV1), 134 nM; in experiment [5] (source organism: SARS-CoV1), 31300 nM.

With ALYGVWPLLL, the IC50 in experiment [1] (setting [8]) was found to be 166 nM; in experiment [2] (setting [8]), 8.9 nM; in experiment [3] (setting [8]), 7.5 nM; in experiment [4] (setting [8]) it was 9 nM; in experiment [5] (setting [8]) it was 20600 nM.

In the case of AMIHKTYIDV, the IC50 came to 206 nM in experiment [1] (setting [6]); 335 nM in experiment [2] (setting [6]); 27 nM in experiment [3] (setting [6]); 173 nM in experiment [4] (setting [6]); 21200 nM in experiment [5] (setting [6]).

In the case of AQFLYLYAL, the IC50 in experiment [1] (source organism: SARS-CoV1) was determined as 0.35 nM; in experiment [2] (source organism: SARS-CoV1), 0.92 nM; in experiment [3] (source organism: SARS-CoV1) it was 6.2 nM; in experiment [4] (source organism: SARS-CoV1) it was 0.39 nM; in experiment [5] (source organism: SARS-CoV1) it was 9620 nM.

In the case of AQMGTLLIA, the IC50 is 0.44 nM in experiment [1] (source organism: SARS-CoV1); 65 nM in experiment [2] (source organism: SARS-CoV1); 1.6 nM in experiment [3] (source organism: SARS-CoV1); 37 nM in experiment [4] (source organism: SARS-CoV1); 12200 nM in experiment [5] (source organism: SARS-CoV1).

As for ATLNTLITL, the IC50 in experiment [1] (setting [6]) came to 9.6 nM; in experiment [2] (setting [6]), 373 nM; in experiment [3] (setting [6]), 577 nM; in experiment [4] (setting [6]), 57 nM; in experiment [5] (setting [6]), 5360 nM.
